Assay results as given in the RNAGym collection of RNA variant scans (doi:10.7554/elife.80360).

B1: Hairpin Ribozyme (parent)
chain: GUCCUCUUUCACGUGCGCGUGAAAGAGAGAAGUGAACCAGAGAAACACACGUUGUGGUAUAUUACCUGGUA

Variants of: B1
Test: self-cleavage, relative activity (ratio to wild type); higher = more cleavage; co-transcriptional

Row | Variant | self-cleavage
1 | GUCCUCUUUCACGUGCGCGUGAAAGAGAGAAGUGAGCCAGAGAAACUCACGUUGUGGUAUAUUACCUGGUA | 0.127
2 | GUCCUCUUUCACGUGCGCGUGAAAGAGAGAAGUGAGCCAGAGAAACCCACGUUGUGGUAUAUUACCUGGUA | 0.372
3 | GUCCUCUUUCACGUGCGCGUGAAAGAGAGAAGUGACCCAGAGAAACACACGUUGUGGUGUAUUACCUGGUA | 0.203
4 | GUCCUCUUUCACGUGCGCGUGAAAGAGAGAAGUGUACCAGAGAAACACACGUUGUGGUAUAUUACCUGUUA | 0.111
5 | GUCCUCUUUCACGUGCGCGUGAAAGAGAGAAGUGUACCAGAGAAACACACGUUGUGGUAUAUUACCUGAUA | 0.184
6 | GUCCUCUUUCACGUGCGCGUGAAAGAGAGAAGUGUACCAGAGAAACACACGCUGUGGUAUAUUACCUGGUA | 0.811
7 | GUCCUCUUUCACGUGCGCGUGAAAGAGAGAAGUGUACCAGAGAAACACACGAUGUGGUAUAUUACCUGGUA | 0.715
8 | GUCCUCUUUCACGUGCGCGUGAAAGAGAGAAGUGUACCAGAGAAACACACGGUGUGGUAUAUUACCUGGUA | 0.553
9 | GUCCUCUUUCACGUGCGCGUGAAAGAGAGAAGUGACCCAGAGAAACGCACGUUGUGGUAUAUUACCUGGUA | 0.0823
10 | GUCCUCUUUCACGUGCGCGUGAAAGAGAGAAGUGUACCAGAGAAACACACGUUGUGGUACAUUACCUGGUA | 0.559
11 | GUCCUCUUUCACGUGCGCGUGAAAGAGAGAAGUGACCCAGAGAAACACACGUUGUGGUAUGUUACCUGGUA | 0.148
12 | GUCCUCUUUCACGUGCGCGUGAAAGAGAGAAGUGAGCCAGAGAAACACACCUUGUGGUAUAUUACCUGGUA | 0.629
13 | GUCCUCUUUCACGUGCGCGUGAAAGAGAGAAGUGACCCAGAGAAACACACGUUGUGGUAUAUUACCUGAUA | 0.24
14 | GUCCUCUUUCACGUGCGCGUGAAAGAGAGAAGUGACCCAGAGAAACACACGUUGUGGUAUAUUACCUGUUA | 0.227
15 | GUCCUCUUUCACGUGCGCGUGAAAGAGAGAAGUGAGCCAGAGAAACAGACGUUGUGGUAUAUUACCUGGUA | 0.259
16 | GUCCUCUUUCACGUGCGCGUGAAAGAGAGAAGUGUACCAGAGAAACACACGUUUUGGUAUAUUACCUGGUA | 0.455
17 | GUCCUCUUUCACGUGCGCGUGAAAGAGAGAAGUGACCCAGAGAAACACACGUUGUGGUAUAUUCCCUGGUA | 0.11
18 | GUCCUCUUUCACGUGCGCGUGAAAGAGAGAAGUGAGCCAGGGAAACACACGUUGUGGUAUAUUACCUGGUA | 0.536
19 | GUCCUCUUUCACGUGCGCGUGAAAGAGAGAAGUGUACCAGAGAAACACACGUUGUGGAAUAUUACCUGGUA | 0.464
20 | GUCCUCUUUCACGUGCGCGUGAAAGAGAGAAGUGACCCAGAGAAACACACGUUGUGGUAUAUUACCUGGGA | 0.671
21 | GUCCUCUUUCACGUGCGCGUGAAAGAGAGAAGUGACCCAGAGAAACAAACGUUGUGGUAUAUUACCUGGUA | 0.142
22 | GUCCUCUUUCACGUGCGCGUGAAAGAGAGAAGUGACCCAGAGAAACAGACGUUGUGGUAUAUUACCUGGUA | 0.118
23 | GUCCUCUUUCACGUGCGCGUGAAAGAGAGAAGUGAGCCAGAGAAACACCCGUUGUGGUAUAUUACCUGGUA | 0.0302
24 | GUCCUCUUUCACGUGCGCGUGAAAGAGAGAAGUGAGCCAGAGAAACACACGUUGUGGUAUAUUACCUGGUC | 1.23
25 | GUCCUCUUUCACGUGCGCGUGAAAGAGAGAAGUGAGCCAGAGAAACACACGUAGUGGUAUAUUACCUGGUA | 1.2
26 | GUCCUCUUUCACGUGCGCGUGAAAGAGAGAAGUGAGCCAGAGAAACACACGUGGUGGUAUAUUACCUGGUA | 0.507

Row | Variant | self-cleavage
27 | GUCCUCUUUCACGUGCGCGUGAAAGAGAGAAGUGACCCAGAGAAACACACGUUGUGGUAUAUUAACUGGUA | 0.52
28 | GUCCUCUUUCACGUGCGCGUGAAAGAGAGAAGUGACCCACAGAAACACACGUUGUGGUAUAUUACCUGGUA | 0.135
29 | GUCCUCUUUCACGUGCGCGUGAAAGAGAGAAGUGACCCAUAGAAACACACGUUGUGGUAUAUUACCUGGUA | 0.122
30 | GUCCUCUUUCACGUGCGCGUGAAAGAGAGAAGUGAGCCAGAGAAACACACGUUGUGGAAUAUUACCUGGUA | 0.836
31 | GUCCUCUUUCACGUGCGCGUGAAAGAGAGAAGUGAGCCAGAGAAACACACGUUGUGGCAUAUUACCUGGUA | 1
32 | GUCCUCUUUCACGUGCGCGUGAAAGAGAGAAGUGUACCAGAGAAACACACGUUGUGGUAUAUUAACUGGUA | 0.625
33 | GUCCUCUUUCACGUGCGCGUGAAAGAGAGAAGUGACCCAGAGAAACACACUUUGUGGUAUAUUACCUGGUA | 0.678
34 | GUCCUCUUUCACGUGCGCGUGAAAGAGAGAAGUGUACCAGAGAAACACACGUUGUGGUAUAUUACCCGGUA | 0.176
35 | GUCCUCUUUCACGUGCGCGUGAAAGAGAGAAGUGAGGCAGAGAAACACACGUUGUGGUAUAUUACCUGGUA | 0.287
36 | GUCCUCUUUCACGUGCGCGUGAAAGAGAGAAGUGAGCCAGAGAAACACACGUUGUGUUAUAUUACCUGGUA | 0.317
37 | GUCCUCUUUCACGUGCGCGUGAAAGAGAGAAGUGACCCAGAGGAACACACGUUGUGGUAUAUUACCUGGUA | 0.131
38 | GUCCUCUUUCACGUGCGCGUGAAAGAGAGAAGUGAGCCAGAGAAACACACGUUGUGGUCUAUUACCUGGUA | 0.102
39 | GUCCUCUUUCACGUGCGCGUGAAAGAGAGAAGUGAGCCAGAGAAACACACGUUGUGGUGUAUUACCUGGUA | 0.146
40 | GUCCUCUUUCACGUGCGCGUGAAAGAGAGAAGUGAGCCAGAGAAACACACGUUGUGGUUUAUUACCUGGUA | 0.0811
41 | GUCCUCUUUCACGUGCGCGUGAAAGAGAGAAGUGACCCAGAGAAACACACGUUGUGGUAUAUUACUUGGUA | 0.264
42 | GUCCUCUUUCACGUGCGCGUGAAAGAGAGAAGUGUACCAGAGAAACACAGGUUGUGGUAUAUUACCUGGUA | 0.369
43 | GUCCUCUUUCACGUGCGCGUGAAAGAGAGAAGUGACCCAGAGAAACACACGUUGUGGUAUAUGACCUGGUA | 0.0757
44 | GUCCUCUUUCACGUGCGCGUGAAAGAGAGAAGUGUACCAGAGAAACACACGUUGUGGUAUAUAACCUGGUA | 0.227
45 | GUCCUCUUUCACGUGCGCGUGAAAGAGAGAAGUGUACCAGAGAAACACACGUUGUGGUAUAUGACCUGGUA | 0.147
46 | GUCCUCUUUCACGUGCGCGUGAAAGAGAGAAGUGACCCAGAGAAACACACGUUGUGGUAUACUACCUGGUA | 0.192
47 | GUCCUCUUUCACGUGCGCGUGAAAGAGAGAAGUGACCCAGAGAAACACACGUUGUGGUAUAGUACCUGGUA | 0.0267
48 | GUCCUCUUUCACGUGCGCGUGAAAGAGAGAAGUGAGCCAGAGAGACACACGUUGUGGUAUAUUACCUGGUA | 0.276
49 | GUCCUCUUUCACGUGCGCGUGAAAGAGAGAAGUGAGCCAGAGACACACACGUUGUGGUAUAUUACCUGGUA | 0.0853
50 | GUCCUCUUUCACGUGCGCGUGAAAGAGAGAAGUGACCCAGAGAAAGACACGUUGUGGUAUAUUACCUGGUA | 0.134
51 | GUCCUCUUUCACGUGCGCGUGAAAGAGAGAAGUGACCCAGAGAAAUACACGUUGUGGUAUAUUACCUGGUA | 0.15
52 | GUCCUCUUUCACGUGCGCGUGAAAGAGAGAAGUGACCCAGAGAAGCACACGUUGUGGUAUAUUACCUGGUA | 0.133

Row | Variant | self-cleavage
53 | GUCCUCUUUCACGUGCGCGUGAAAGAGAGAAGUGACCCAGAGAAACACACGUUGUGGUAAAUUACCUGGUA | 0.439
54 | GUCCUCUUUCACGUGCGCGUGAAAGAGAGAAGUGAGCCAGAGAAACACACGUUUUGGUAUAUUACCUGGUA | 0.816
55 | GUCCUCUUUCACGUGCGCGUGAAAGAGAGAAGUGACCCAGAGAAACACACGCUGUGGUAUAUUACCUGGUA | 0.556
56 | GUCCUCUUUCACGUGCGCGUGAAAGAGAGAAGUGAGCCAGAGAAACACACGUUGUGGUAUAUUCCCUGGUA | 0.17
57 | GUCCUCUUUCACGUGCGCGUGAAAGAGAGAAGUGAGCCAGAGAAACACACGAUGUGGUAUAUUACCUGGUA | 0.791
58 | GUCCUCUUUCACGUGCGCGUGAAAGAGAGAAGUGAGCCAGAGAAACACACGUUGUGGUAUAUUACUUGGUA | 0.482
59 | GUCCUCUUUCACGUGCGCGUGAAAGAGAGAAGUGACCCAGAGAAACACGCGUUGUGGUAUAUUACCUGGUA | 0.28
60 | GUCCUCUUUCACGUGCGCGUGAAAGAGAGAAGUGACCCAGAGAAACACCCGUUGUGGUAUAUUACCUGGUA | 0.144
61 | GUCCUCUUUCACGUGCGCGUGAAAGAGAGAAGUGAGCCAGAGAAACACAUGUUGUGGUAUAUUACCUGGUA | 0.407
62 | GUCCUCUUUCACGUGCGCGUGAAAGAGAGAAGUGAGCCAGAGAAACACAGGUUGUGGUAUAUUACCUGGUA | 0.382
63 | GUCCUCUUUCACGUGCGCGUGAAAGAGAGAAGUGAGCCAGAAAAACACACGUUGUGGUAUAUUACCUGGUA | 0.23
64 | GUCCUCUUUCACGUGCGCGUGAAAGAGAGAAGUGAGCUAGAGAAACACACGUUGUGGUAUAUUACCUGGUA | 0.523
65 | GUCCUCUUUCACGUGCGCGUGAAAGAGAGAAGUGAGCAAGAGAAACACACGUUGUGGUAUAUUACCUGGUA | 0.146
66 | GUCCUCUUUCACGUGCGCGUGAAAGAGAGAAGUGACCCAGAGAAACACACGUUGUGCUAUAUUACCUGGUA | 0.17
67 | GUCCUCUUUCACGUGCGCGUGAAAGAGAGAAGUGACCCAGAGAAACACACGUUGUGAUAUAUUACCUGGUA | 0.125
68 | GUCCUCUUUCACGUGCGCGUGAAAGAGAGAAGUGUACCAGAAAAACACACGUUGUGGUAUAUUACCUGGUA | 0.181
69 | GUCCUCUUUCACGUGCGCGUGAAAGAGAGAAGUGUACCAGACAAACACACGUUGUGGUAUAUUACCUGGUA | 0.246
70 | GUCCUCUUUCACGUGCGCGUGAAAGAGAGAAGUGAGCCAGAGAAACACACGUUGUGGUAUCUUACCUGGUA | 0.328
71 | GUCCUCUUUCACGUGCGCGUGAAAGAGAGAAGUGAGCCAGAGAAACACACGUUGUGGUAUAUUACCUGCUA | 0.449
72 | GUCCUCUUUCACGUGCGCGUGAAAGAGAGAAGUGAGCCAGAGAAACACACGUUGUAGUAUAUUACCUGGUA | 0.146
73 | GUCCUCUUUCACGUGCGCGUGAAAGAGAGAAGUGAGCCAGAGAAACACACGUUGUCGUAUAUUACCUGGUA | 0.0421
74 | GUCCUCUUUCACGUGCGCGUGAAAGAGAGAAGUGACCCAGAGAAACACACGUCGUGGUAUAUUACCUGGUA | 0.953
75 | GUCCUCUUUCACGUGCGCGUGAAAGAGAGAAGUGAGCCAGAGAAAAACACGUUGUGGUAUAUUACCUGGUA | 0.0586
76 | GUCCUCUUUCACGUGCGCGUGAAAGAGAGAAGUGUACCAGAGAAACACACGUUGUGGUAUAUUACCUAGUA | 0.29
